Measured values taken from publication PMC4670726 (2015).

Tests used:
Assay in all cases: FP competition (Ki)
[1] = target: T1, DOCK7 (Homo sapiens (Human), UniProt Q96N67)
T1 chain: RSAVRPASLNLNRSR

[2] = target: T2, IRS1 (Homo sapiens (Human), UniProt P35568)
T2 chain: RLARPTRLSL

[3] = target: T3, APBA2 (Homo sapiens (Human), UniProt Q99767)
T3 chain: RHEARPKSLNLL

[4] = target: T4, PDE4B (Homo sapiens (Human), UniProt Q07343)
T4 chain: EGDGISRPTTLPLTTLPS

[5] = target: T5, KSR2 (Homo sapiens (Human), UniProt Q6VAB6)
T5 chain: KKKSKPLNLKI

[6] = target: T6, AAKG2 (Homo sapiens (Human), UniProt Q9UGJ0)
T6 chain: SQKRRSLRVHIP

[7] = target: T7, CCNT2 (Homo sapiens (Human), UniProt O60583)
T7 chain: KKEKSGSLKLRIPIP

[8] = target: T8, RHDF1 (Homo sapiens (Human), UniProt Q96CC6)
T8 chain: SLQRKKPPWLKLDIPS

[9] = target: T9, DCX (Mus musculus (Mouse), UniProt O88809)
T9 chain: SLRKHKVDLYLPLSL

[10] = target: T10, JAZF1 (Homo sapiens (Human), UniProt Q86VZ6)
T10 chain: SLKKKIQPKLSLTLS

[11] = target: T11, GAB3b (Homo sapiens (Human), UniProt Q8WWW8)
T11 chain: KPQRKSRPPPLDLRNLS

[12] = target: T12, DOCK5 (Homo sapiens (Human), UniProt Q9H7D0)
T12 chain: KAQRPKSLQLM

[13] = target: T13, MYO9B (Homo sapiens (Human), UniProt Q13459)
T13 chain: LERPTSLALD

Kd [1]: 7.3 µM
Kd [2]: 3.5 µM
Kd [3]: 10.8 µM
Kd [4]: 16.4 µM
Kd [5]: 24.7 µM
Kd [6]: > 100 µM
Kd [7]: > 100 µM
Kd [8]: > 100 µM
Kd [9]: 16.7 µM
Kd [10]: > 100 µM
Kd [11]: 13.2 µM
Kd [12]: 5.1 µM
Kd [13]: 15.9 µM
B1: JNK1 (protein)
chain: DNNFYSVEIGDSTFTVLKRYQNLKPIGSGAQGIVCAAYDAILERNVAIKKLSRPFQNQTHAKRAYRELVLMKCVNHKNIIGLLNVFTPQKSLEEFQDVYIVMELMDANLCQVIQMELDHERMSYLLYQMLCGIKHLHSAGIIHRDLKPSNIVVKSDCTLKILDFGLARTAGTSFMMTPYVVTRYYRAPEVILGMGYKENVDLWSVGCIMGEMVCHKILFPGRDYIDQWNKVIEQLGTPCPEFMKKLQPTVRTYVENRPKYAGYSFEKLFPDVLFPADSEHNKLKASQARDLLSKMLVIDASKRISVDEALQHPYINVWYDPSEAEAPPPKIPDKQLDEREHTIEEWKELIYKEVMDLE
